Measured values from patent US20240245751A1.

Target: Tat-PYC-Smad7 (recombinant Tat-tagged protein containing amino acids 203-426 of human Smad7) (human) (UniProt O15105)
Experiment: sandwich ELISA: rabbit anti-Smad7 (Novus NBP1-87728) as capture, MAB2029 as detection, Tat-PYC-Smad7 spiked into dog serum, OD 450

Sequence of UniProt O15105 (O15105 other isoform, or with tags, fused parts or gaps limits assumed): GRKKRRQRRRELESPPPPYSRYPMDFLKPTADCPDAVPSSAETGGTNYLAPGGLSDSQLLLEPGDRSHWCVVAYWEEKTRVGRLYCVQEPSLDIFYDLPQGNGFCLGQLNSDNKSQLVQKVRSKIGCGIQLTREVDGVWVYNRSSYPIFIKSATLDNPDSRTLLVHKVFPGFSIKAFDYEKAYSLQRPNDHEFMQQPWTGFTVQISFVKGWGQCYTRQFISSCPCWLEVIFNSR

“Mouse monoclonal antibody (R&D #MAB2029) that recognized the c-terminus of human SMAD7” was tested, and the lowest concentration detected was 0.16 ng/mL.
